Test results: patent US20190351068A1, “COMPOSITIONS AND METHODS FOR DRUG DELIVERY” (priority 2017, published 2019)

What was measured:
[1] = parameters: species or system rhesus macaque monkey; details: rhesus monkey, in vivo
Experimental: To evaluate the CNS delivery efficiency, Rituximab nanoparticles were administrated to non-human primates (rhesus macaque monkey) at a dose of 5.0 mg/kg via intravenous injection. After intravenous administration, plasma was collected at 1, 2, 3, 5, 7, 10, 14 and 17 days post injection, and CSF was collected at day 3, 10 and 17. […] In sharp contrast, Rituximab in CSF was undetectable by week 2 for the monkey administrated with native Rituximab.

[2] = Brain fluorescence after intravenous injection of fluorescence-labeled BSA conjugates; type: in vivo, Balb/c mice; details: 5.0 mg/kg intravenous, one day after injection
Experimental: Protein conjugates were synthesized by conjugating polymer, poly(2-methacryloyloxyethyl phosphorylcholine) (PMPC), to fluorescence-labeled bovine serum albumin (BSA). The BSA conjugates were injected to Balb/c mice via intravenously at a dose of 5.0 mg/kg. One date after the intravenous injection, fluorescence intensity of the mouse brains was compared.

choline transporter = test: Brain uptake of Cy5.5-labeled n(Nimo) after pre-injection of choline-transporter inhibitor; type: in vivo, mice; details: 1.25, 2.5 or 5 μg/kg intraperitoneal 20 mins before n(Nimo); 4 hours after injection
Experimental: The BBB penetration of the nanocapsules can be attributed to their transcytosis mediated by the choline and acetylcholine receptors. Glioma-bearing mice were intraperitoneally injected with 1.25, 2.5 or 5 μg/kg of choline-transporter inhibitor, hemicholinium-3 (HC-3), 20 mins prior to the injection of Cy5.5-labeled n(Nimo). FIGS. 8A and 8B depict the in-vivo bioluminescent images of the orthotopic U87-EGFRwt glioma xenograft mice and the ex-vivo fluorescent images of the brains 4 hours after injection. […] This method provides an effective antibody delivery strategy for brain tumor treatment.

Rituximab
Rituximab in CSF [1]: undetectable
CSF concentration compared with n-Rituximab ([1]; iv): significantly lower CSF concentration

BSA conjugates: poly(2-methacryloyloxyethyl phosphorylcholine) (PMPC) conjugated to fluorescence-labeled bovine serum albumin
brain fluorescence intensity relative to mice injected with PBS [2]: 6 times
brain fluorescence intensity relative to mice injected with native BSA [2]: 4 times

C[N+]1(C)CCOC(O)(c2ccc(-c3ccc(C4(O)C[N+](C)(C)CCO4)cc3)cc2)C1.[Br-].[Br-] (centres unmarked) [HC-3, hemicholinium-3]
effect on fluorescent intensity of glioma-bearing brain after Cy5.5-labeled n(Nimo) (choline transporter): significantly reduces the fluorescent intensity
